According to article PMC3517456:

Columns and labels:
Gal4AD-Caf1a = Gal4AD-Caf1a (UniProt Q9UIV1); test: yeast two-hybrid (β-galactosidase reporter); settings: yeast strain YRG-2, LacZ reporter under five GAL4 consensus sequences; triplicate; parent: est. 8.4; read off a plot
Gal4AD-Caf1b = Gal4AD-Caf1b (UniProt Q9UFF9); test: yeast two-hybrid (β-galactosidase reporter); settings: yeast strain YRG-2, LacZ reporter under five GAL4 consensus sequences; triplicate; parent: est. 25; read off a plot
UniProt Q9UFF9, sequence (Q9UFF9 whole entry, the tested form may be a part): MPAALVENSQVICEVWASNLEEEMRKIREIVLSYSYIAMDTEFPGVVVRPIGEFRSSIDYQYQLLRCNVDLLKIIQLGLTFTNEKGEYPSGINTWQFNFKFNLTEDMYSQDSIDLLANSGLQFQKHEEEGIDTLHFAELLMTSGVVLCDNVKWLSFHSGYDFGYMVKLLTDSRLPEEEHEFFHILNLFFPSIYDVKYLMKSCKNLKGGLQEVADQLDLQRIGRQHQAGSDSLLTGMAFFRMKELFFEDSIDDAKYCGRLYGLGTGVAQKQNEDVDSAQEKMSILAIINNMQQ

UniProt Q9UIV1, sequence (Q9UIV1 whole entry, the tested form may be a part): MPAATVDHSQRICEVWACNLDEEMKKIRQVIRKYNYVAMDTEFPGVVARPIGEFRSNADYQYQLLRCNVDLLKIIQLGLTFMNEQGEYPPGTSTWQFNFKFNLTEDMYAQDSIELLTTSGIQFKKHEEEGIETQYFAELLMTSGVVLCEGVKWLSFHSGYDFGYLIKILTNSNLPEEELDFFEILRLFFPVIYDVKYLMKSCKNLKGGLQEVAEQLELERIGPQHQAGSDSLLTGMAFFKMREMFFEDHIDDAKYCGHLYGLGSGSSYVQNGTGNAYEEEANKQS

Gal4-DNA binding domain-TOB1 (from UniProt P50616) H45A
response (Gal4AD-Caf1a): 1.7 x10^4 RLU | response (Gal4AD-Caf1b): 2.8 x10^4 RLU
